This passage reports protein stability index results from the supplement of paper PMC10724198.

± gives the standard deviation of the averaged measurements.
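Note: PSI is a weighted mean of sequencing reads over stability bins, variants kept only with over 10 reads, mCherry proximal and sfGFP distal, peptide attached via GGGS linker.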

In this data set the test system is Saccharomyces cerevisiae. In words: protein stability index of tFT-peptide fusion (C-terminal peptide) (PSI (0-1 scale)); higher = more stable (slower turnover). Conditions: genetic background: wild type; temperature: 30 C.
The sequence KYYRKKNIEKEN gave a protein stability index of 0.575 ± 0.017.
The figure for LACCGGLVTWVL is 0.6891 ± 0.0046.
The figure for LACTSPLLLRFR is 0.673 ± 0.023; for LADFMFCALPLC it is 0.658 ± 0.045; for LADRTREFSNPA it is 0.6466 ± 0.0054.
The figure for LAFFPRGTPPHS is 0.67 ± 0.029; for LAGGGWGGACGE it is 0.655 ± 0.017.
Turning to LAGLLMSPNMSP, the protein stability index was 0.697 ± 0.025.
To LAGVEMWVGLEV belongs 0.61 ± 0.059; to LALKYLGQLIGA, 0.594 ± 0.024; to LALPSWVRYASR, 0.694 ± 0.016.
In the case of LALRMLWSIVRT, the protein stability index worked out at 0.599 ± 0.079.
The figure for LAMALRGGLYFS is 0.701 ± 0.011.
To LAPALPPQPPSH belongs 0.658 ± 0.023; to LAPPLPMPPPLA, 0.682 ± 0.02.
The figure for LAPPPAAPLSHS is 0.697 ± 0.018.
For the sequence LAPPPPARPALP, the protein stability index is 0.699 ± 0.0076.
To LAPPTTAGPRPP belongs 0.599 ± 0.01; to LARASLVLPPSG, 0.648 ± 0.093.
The figure for LASPDPSPLVVP is 0.678 ± 0.02; for LASSVRSSASVP it is 0.739 ± 0.034.
The figure for LAYITTTPALAS is 0.581 ± 0.048; for LCAPPPSLSPFV it is 0.708 ± 0.025.
For LCCPVFFAFCFP, the protein stability index turned out to be 0.683 ± 0.094.
The figure for LCFRSLFLCSLF is 0.577 ± 0.13.
For LCFVFDLASLCW, the protein stability index amounted to 0.539 ± 0.04.
To LCGPKIGFVVSR belongs 0.704 ± 0.04; to LCGVWWGWWVGL, 0.576 ± 0.026.
In turn, LCLDNFSSSWPI gave a protein stability index of 0.719 ± 0.02.
To LCPSLLFSSSDP belongs 0.699 ± 0.024; to LCPVGLGFFVGL, 0.666 ± 0.056; to LCRYFLRGVINT, 0.64998 ± 0.00026.
The figure for LCTCRLSDVRIG is 0.6748 ± 0.0033; for LDLLIVNFFNLV it is 0.69 ± 0.13; for LDLLRCIQHCVV it is 0.637 ± 0.027.
The figure for LDPPHTLPRSAP is 0.70982 ± 0.0002; for LDSSPPCSSNCD it is 0.736 ± 0.058; for LDVFSLASRPDG it is 0.5928 ± 0.0053.
The sequence LDVSGEVRVGRG gave a protein stability index of 0.629 ± 0.013.
To LELADGRCARSG belongs 0.8 ± 0.065; to LELTSDWRAYVY, 0.643 ± 0.052.
To LESSLPIDSERC belongs 0.675 ± 0.055; to LEVAGVLCSRVC, 0.56 ± 0.016; to LEWGRGFGLWGG, 0.7823 ± 0.004.
To LEYRSCDFIDRS belongs 0.625 ± 0.057; to LFAGTFTEYPLS, 0.641 ± 0.078.
For LFFLRSSSRGLW, the protein stability index is 0.736 ± 0.055.
To LFHRAVVGRVRP belongs 0.634 ± 0.013; to LFICETRLDSRY, 0.744 ± 0.13.
To LFLYLGSGARAV belongs 0.721 ± 0.019; to LFPCPSMTLPRL, 0.706 ± 0.017; to LFPFIPPRLPLP, 0.687 ± 0.01.
To LFPHSLLPPPFF belongs 0.73 ± 0.042; to LFPRCPPPPLTT, 0.653 ± 0.053.
LFPSSHFSLSLH gave a protein stability index of 0.767 ± 0.033.
To LFPSVCSTSSFS belongs 0.676 ± 0.034; to LFQFFSPCRIPE, 0.749 ± 0.011.
In turn, LFRPSFFFFVCQ returned a protein stability index of 0.548 ± 0.0027.
To LFRRPLLRPPPF belongs 0.745 ± 0.024; to LFSHGFLYILGG, 0.696 ± 0.017.
The figure for LFSHLLFPWLSR is 0.7545 ± 0.0048; for LFSLPPRASFSL it is 0.773 ± 0.043.
The figure for LFTSLYWAFRSR is 0.679 ± 0.016; for LGAAFHSLTRLV it is 0.617 ± 0.066; for LGAMTQEADGTG it is 0.639 ± 0.078.
Sequence LGARELTFALLR displayed a protein stability index of 0.649 ± 0.0039.
To LGCSMSPYFVRF belongs 0.802 ± 0.074; to LGFCRLVFGVVG, 0.522 ± 0.01.
The figure for LGFISGCGVFGT is 0.708 ± 0.026; for LGFPLPRTPSIT it is 0.792 ± 0.06; for LGGGGGGGVAGD it is 0.723 ± 0.069.
To LGGGVVCGVWGG belongs 0.704 ± 0.03; to LGGWLWSPGVVV, 0.6355 ± 0.0056.
Turning to LGILSERIGRAL, the protein stability index was 0.7713 ± 0.0036.
LGKSGLTILCRD gave a protein stability index of 0.5954 ± 0.003.
To LGLFGSVVVCGQ belongs 0.65 ± 0.015; to LGLGSFPLMDLS, 0.738 ± 0.015; to LGLQHPSAWLFP, 0.678 ± 0.045.
The figure for LGNANKRPREIK is 0.718 ± 0.032.
The figure for LGPFSVPCDPHF is 0.696 ± 0.04; for LGPGGVAWGAWW it is 0.7623 ± 0.0022.
With LGPPLLDLASLR, the protein stability index was determined as 0.719 ± 0.035.
To LGPRMYKRRDLR belongs 0.724 ± 0.023; to LGRGGAASGRAL, 0.67 ± 0.062.
The figure for LGSSGVVGYHLD is 0.71 ± 0.054; for LGVGGRWVGPGA it is 0.722 ± 0.027.
The figure for LGVNYWIYSPHG is 0.689 ± 0.01; for LGVPKDALKMMS it is 0.685 ± 0.0078.
On to LGVPPVLLLASS, for which the protein stability index was found to be 0.506 ± 0.0077.
LGWLCWQFFGGT had a protein stability index of 0.795 ± 0.14.
To LGWVGGGGGWGC belongs 0.704 ± 0.03; to LGYGERAGVGKR, 0.6954 ± 0.0049.
Regarding LHCRFDCTPFPY, the protein stability index came out at 0.67 ± 0.012.
The figure for LHGRTLENIVVR is 0.6481 ± 0.0044.
To LHHGMVDDCIKK belongs 0.70112 ± 0.00044.
The figure for LHPCATITELTS is 0.652 ± 0.026; for LHPPPLPQAPPT it is 0.684 ± 0.09.
On to LHRCRPPCSIHL, for which the protein stability index was 0.816 ± 0.036.
As for LHRGCSGNVPAR, the protein stability index was determined as 0.697 ± 0.037.
The figure for LHSPPLPFTPSP is 0.613 ± 0.041; for LIAACSFPRSSI it is 0.716 ± 0.067.
The figure for LIFDISDLVWYI is 0.636 ± 0.031; for LIGMCEAGCSPF it is 0.727 ± 0.012.
The figure for LILHVGWDSQLG is 0.667 ± 0.085; for LISSPKIHLRTY it is 0.742 ± 0.14.
Sequence LISSVRLACGVS gave a protein stability index of 0.554 ± 0.061.
The figure for LIVPGGLSVFGG is 0.676 ± 0.082; for LKKEKDHKNRNR it is 0.67 ± 0.016; for LKNFGRGAMVRT it is 0.688 ± 0.013.
The figure for LKSSREKRDMIG is 0.578 ± 0.019; for LLAEPASSRFRP it is 0.722 ± 0.029.
To LLAFRVSRYFCD belongs 0.87 ± 0.06.
LLALHPLRSWPP had a protein stability index of 0.665 ± 0.016.
To LLALSPLSSYAL belongs 0.711 ± 0.084; to LLALVLTYLLYG, 0.564 ± 0.03; to LLDGGGGGVGEG, 0.765 ± 0.011.
